Laboratory results taken from patent US20140356364A1 (AMPLIMMUNE, published 2014).

Tests used:
[1] = target: T1, Human B7-H4 protein antigen (coated on ELISA plates) (human, UniProt Q7Z7D3 25-259, limits assumed); assay: ELISA, conditioned medium on coated human B7-H4 antigen, anti-Fc-HRP/TMB
T1 construct: also called B7-H4 antigen; human B7-H4 antigen
T1 sequence: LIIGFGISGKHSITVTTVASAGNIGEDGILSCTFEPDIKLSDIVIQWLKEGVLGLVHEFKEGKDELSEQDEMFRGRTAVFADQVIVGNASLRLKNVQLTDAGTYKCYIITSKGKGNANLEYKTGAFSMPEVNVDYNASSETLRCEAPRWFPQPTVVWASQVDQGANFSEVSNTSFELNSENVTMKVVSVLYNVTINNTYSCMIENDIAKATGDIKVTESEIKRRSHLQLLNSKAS

[2] = target: T2, B7-DChIg construct (extracellular domain of human DC linked to the hinge and Fc region of a human IgG1) (human, UniProt Q9BQ51 20-220); assay: plate-based ELISA, hybridoma supernatant on coated B7-DChIg
T2 construct: extracellular domain; Specificity control antigen in the plate-based assay; not shown: human IgG1 hinge and Fc region
T2 sequence (looked up): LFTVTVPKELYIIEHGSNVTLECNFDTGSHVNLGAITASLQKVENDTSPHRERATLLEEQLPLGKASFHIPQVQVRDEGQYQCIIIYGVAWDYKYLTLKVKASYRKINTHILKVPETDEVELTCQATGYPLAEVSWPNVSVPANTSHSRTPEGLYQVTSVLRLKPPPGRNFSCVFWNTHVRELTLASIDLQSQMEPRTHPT
Experimental: (§1) Serial dilutions were made from H74 (a commercially available anti-B7-H4 antibody), 2D1, 2E11 and 2H9 stock solutions and added to 96-well ELISA plates coated with B7-H4hIg or B7-DChIg. After incubation and wash, horseradish peroxidase (HRP) conjugated anti-mouse IgG antibody was added to the plates. After incubation and wash, 3,3′,5,5′-Tetramethylbenzidine (TMB) substrate was added. The colorimetric development was stopped by H₂SO₄ stop solution and read with a plate reader measuring absorbance at a 450 nm wavelength.
(§2) A plate-based binding assay using the B7-H4hIg construct was employed to capture the elicited antibody; antibodies were then characterized as being either IgG or IgM. As a specificity control, antibodies were also subjected to capture with a B7-DChIg construct (comprising the extracellular domain (ECD) of human DC linked to the hinge and Fc region of a human IgG1) (“B7-DChIg”) and the extent of IgG capable of binding was measured.

[3] = target: T3, human B7-H4 expressed on the surface of stably transfected HEK293 cells (human, UniProt Q7Z7D3 25-282); assay: flow cytometry, hybridoma supernatant on HEK293 cells expressing human B7-H4, APC anti-mouse detection
T3 construct: also called 293T.B7-H4 cells; human B7-H4 arrayed on the surface of a live cell
T3 sequence: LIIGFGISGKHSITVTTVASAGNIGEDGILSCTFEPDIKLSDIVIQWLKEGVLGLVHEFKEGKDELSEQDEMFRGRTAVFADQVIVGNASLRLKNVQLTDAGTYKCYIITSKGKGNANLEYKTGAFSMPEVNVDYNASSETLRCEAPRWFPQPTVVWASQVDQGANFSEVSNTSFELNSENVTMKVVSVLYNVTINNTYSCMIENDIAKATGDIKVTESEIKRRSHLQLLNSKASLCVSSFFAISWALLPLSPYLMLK
Experimental: Antibodies 2D1, 2E11 and 2H9 were used either un-diluted (Neat), or diluted at 1:3, 1:9 and 1:27, to stain 293T.B7-H4 cells. For binding detection, APC labeled anti-mouse IgG antibody was utilized followed by FACS analysis of APC positive cells. H74 (a commercially available anti-B7-H4 antibody) at 1 μg/mL was used as positive control. Negative control was 1 μg/mL of mIgG1. 293T.B7-H4 cells incubated with APC labeled anti-mouse IgG antibody (DAM APC only), and parent 293 T cells stained with un-diluted 2D1 (Neat [293T]) further served as negative binding controls.
Neat and diluted hybridoma supernatants were then tested for the ability of their antibodies to bind to such cells or to control […] HEK293 cells. After washing, bound antibody was detected with allophycocyanin (APC)-conjugated, anti-mouse antibodies and the mean fluorescent intensity of the cells was determined (FIG. 3).

human B7-H4Ig (B7-H4hIg) = target: T4, human B7-H4Ig (B7-H4hIg) (human, UniProt Q7Z7D3 25-259); assay: plate-based ELISA, hybridoma supernatant on coated B7-H4hIg
T4 construct: also called B7-H4Ig construct; not shown: Ig (Fc) part of the 'hIg' construct
T4 sequence: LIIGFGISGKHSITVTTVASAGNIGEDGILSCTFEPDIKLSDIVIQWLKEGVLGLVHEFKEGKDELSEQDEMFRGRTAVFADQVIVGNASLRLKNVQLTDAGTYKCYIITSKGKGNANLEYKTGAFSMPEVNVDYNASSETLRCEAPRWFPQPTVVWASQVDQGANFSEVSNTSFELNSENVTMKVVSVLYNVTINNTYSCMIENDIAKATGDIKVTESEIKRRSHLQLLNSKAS
Experimental: as §1, §2

[4] = target: T1, Human B7-H4 protein antigen (coated on …); assay: ELISA, conditioned medium on coated human B7-H4 antigen, anti-Fc-HRP, OD650
Experimental: Human B7-H4 protein antigen and control antigen were coated onto 96-well ELISA plates. The plates are then blocked with 3% BSA, and washed in PBS.
The conditioned media (4 days post transfection) were then tested for antigen binding in the 96-well ELISA. Anti-Fc-HRP was used as the detecting antibody. Plates were washed with PBS, and TMB (3,3′,5,5′-tetramethylbenzidine) was added for HRP color reaction. Once color developed, the OD₆₅₀ in each well was determined on an absorbance microplate reader.

B1: recombinant chimeric anti-B7-H4 antibody 2H9 (2H9 heavy chain / 2H9 light chain, human IgG4 S228P) (antibody, V domains shown)
VH: EVQLVESGGNLVKPGGSLKLSCAASGFTFSNSAMSWVRQTPEKRLEWVATISDGGRYTYYPDNVKGRFTISRDNAKNNLYLQMSHLKSEDTALYYCARDRPHWYFDVWGTGATVTVSS
VL: DIVLTQSPASLAVSLGQRATISCRASESIDNYGISFMHWYQQKPGQPPKLLIYRASNLESGIPARFSGSGSRTDFTLTINPVETDDVATYFCQQSDEGRTFGGGTKLEIKR
notes: tested as CHO conditioned medium; also called 2H9 HC + 2H9 LC
OD650 [1]: 1.15 OD650

B2: anti-human B7-H4 antibody 2H9 (murine hybridoma clone) (antibody, IgG1, V domains shown)
VH: EVQLVESGGNLVKPGGSLKLSCAASGFTFSNSAMSWVRQTPEKRLEWVATISDGGRYTYYPDNVKGRFTISRDNAKNNLYLQMSHLKSEDTALYYCARDRPHWYFDVWGTGATVTVSS
VL: DIVLTQSPASLAVSLGQRATISCRASESIDNYGISFMHWYQQKPGQPPKLLIYRASNLESGIPARFSGSGSRTDFTLTINPVETDDVATYFCQQSDEGRTFGGGTKLEIK
notes: Mouse hybridoma antibody tested as hybridoma supernatant; IgG1-producing clone; also called Anti-Human B7-H4 Clone 2H9
binding result [2]: no binding

B3: anti-human B7-H4 antibody 2E11 (murine hybridoma clone) (antibody, IgG1, V domains shown)
VH: EVKLVESEGGLVQPGSSMKLSCTASGFKFTDYYMAWVRQVPEKGLEWVANINYDGSSTYYLDSLKSRFIISRDNAKNILYLQMNSLKSEDTATYYCARKGYFDYWGQGTTLTVSS
VL: DIVMSQSPSSLAVSVGEKVTVSCKSSQSLLYSTNQRTYLAWFQQKPGQSPKLLIYWASTRESGVPDRFTGSGSGTDFTLTISSVKAEDLAVYYCQQYYNYPLTFGTGTKLELK
notes: Mouse hybridoma antibody tested as hybridoma supernatant; IgG1-producing clone; also called Anti-Human B7-H4 Clone 2E11
binding result [3]: binds | binding result [2]: no binding | binding result (human B7-H4Ig (B7-H4hIg)): binds

B4: recombinant chimeric anti-B7-H4 antibody 2D1 (2D1 heavy chain / 2D1 light chain, human IgG4 S228P) (antibody, V domains shown)
VH: EVQLVESGGGLVKPGGSLKLSCAASGFTFNSHGMSWVRQTPEKRLDWVATISDGGTYTYYPVNVKGRFTISRDNAKNNLYLQMSHLKSEDTAMYYCARDGGGGAYWGQGTLVTVSA
VL: DVVMTQTPLSLPVSLGDQASISCRSSHSLVHSNGNTYLHWYLQKPGQSPNLLIYIVSNRFSGVPDRFSGSGSGTDFTLKISRVEAEDLGVYFCSQSTHVPPTFGAGTKLELKR
notes: tested as CHO conditioned medium; also called 2D1 HC + 2D1 LC
OD650 [1]: 1.12 OD650

B5: recombinant antibody of 2D1 heavy chain and 2H9 light chain (human IgG4 S228P) (antibody, V domains shown)
VH: EVQLVESGGGLVKPGGSLKLSCAASGFTFNSHGMSWVRQTPEKRLDWVATISDGGTYTYYPVNVKGRFTISRDNAKNNLYLQMSHLKSEDTAMYYCARDGGGGAYWGQGTLVTVSA
VL: DIVLTQSPASLAVSLGQRATISCRASESIDNYGISFMHWYQQKPGQPPKLLIYRASNLESGIPARFSGSGSRTDFTLTINPVETDDVATYFCQQSDEGRTFGGGTKLEIKR
notes: Mixed-chain combination tested as CHO conditioned medium; also called 2D1 HC + 2H9 LC
binding result [4]: no binding | OD650 [1]: 0.06 OD650

B6: recombinant antibody of 2H9 heavy chain and 2D1 light chain (human IgG4 S228P) (antibody, V domains shown)
VH: EVQLVESGGNLVKPGGSLKLSCAASGFTFSNSAMSWVRQTPEKRLEWVATISDGGRYTYYPDNVKGRFTISRDNAKNNLYLQMSHLKSEDTALYYCARDRPHWYFDVWGTGATVTVSS
VL: DVVMTQTPLSLPVSLGDQASISCRSSHSLVHSNGNTYLHWYLQKPGQSPNLLIYIVSNRFSGVPDRFSGSGSGTDFTLKISRVEAEDLGVYFCSQSTHVPPTFGAGTKLELKR
notes: Mixed-chain combination tested as CHO conditioned medium; also called 2H9 HC + 2D1 LC
binding result [4]: no binding | OD650 [1]: 0.02 OD650

B7: anti-human B7-H4 antibody 2D1 (murine hybridoma clone) (antibody, IgG2, V domains shown)
VH: EVQLVESGGGLVKPGGSLKLSCAASGFTFNSHGMSWVRQTPEKRLDWVATISDGGTYTYYPVNVKGRFTISRDNAKNNLYLQMSHLKSEDTAMYYCARDGGGGAYWGQGTLVTVSA
VL: DVVMTQTPLSLPVSLGDQASISCRSSHSLVHSNGNTYLHWYLQKPGQSPNLLIYIVSNRFSGVPDRFSGSGSGTDFTLKISRVEAEDLGVYFCSQSTHVPPTFGAGTKLELK
notes: Mouse hybridoma antibody tested as hybridoma supernatant; also called Anti-Human B7-H4 Clone 2D1
binding result [2]: no binding
